# According to US12037395 (IMMVIRA, dated 2024):
# Numbering of substitutions follows the chain as printed.
# B1: humanized anti-PD-1 antibody huC1E1-V3 (antibody, human IgG1, kappa, V domains shown)
# VH: EVQLVESGGGVVQPGRSLRLSCAASGFTFSSYLMSWVRQAPGKGLEWVATISGGGGDTYFPDSVKGRFTISRDNSKNTLYLQMNSLRAEDTAVYYCVRFGGAGYYWYFDVWGAGTLVTVSS
# VL: EIVLTQSPATLSLSPGERATLSCRASKSVDDSGISFMHWYQQKPGQPPRLLIYAASNQGSGVPARFSGSGSGTDFTLTISSLEPEDFAVYFCHQTKEVPWTFGQGTKVEIKR
# notes: Human IgG1/kappa, expressed in 293F cells
# B2: humanized anti-PD-1 antibody huC1E1-V4 (antibody, human IgG1, kappa, V domains shown)
# VH: B1 VH
# VL: B1 VL with Y40F, P47A
# notes: as for B1
# B3: humanized anti-PD-1 antibody huC1E1-V5 (antibody, human IgG1, kappa, V domains shown)
# VH: B1 VH
# VL: B1 VL with Y40F, V62I
# notes: as for B1
# B4: humanized anti-PD-1 antibody huC1E1-V7 (antibody, human IgG1, kappa)
# heavy: not shown
# light: EIVLTQSPATLSLSPGERATLSCRASKSVDDSGISFMHWYQQKPGQAPRLLIYAASNQGSGIPARFSGSGSGTDFTLTISSLEPEDFAVYYCHQTKEVPWTFGQGTKVEIKRTVAAPSVFIFPPSDEQLKSGTASVVCLLNNFYPREAKVQWKVDNALQSGNSQESVTEQDSKDSTYSLSSTLTLSKADYEKHKVYACEVTHQGLSSPVTKSFNRGEC
# notes: as for B1
# B5: humanized anti-PD-1 antibody huC1E1-V10 (antibody, human IgG1, kappa)
# heavy: not shown
# light: B4 light
# notes: as for B1
# B6: humanized anti-PD-1 antibody huC1E1-V6 (antibody, human IgG1, kappa, V domains shown)
# VH: B1 VH
# VL: B1 VL with Y40F, F91Y
# notes: as for B1
# B7: Nivolumab (OPDIVO®) (antibody, V domains shown)
# VH: QVQLVESGGGVVQPGRSLRLDCKASGITFSNSGMHWVRQAPGKGLEWVAVIWYDGSKRYYADSVKGRFTISRDNSKNTLFLQMNSLRAEDTAVYYCATNDDYWGQGTLVTVSS
# VL: EIVLTQSPATLSLSPGERATLSCRASQSVSSYLAWYQQKPGQAPRLLIYDASNRATGIPARFSGSGSGTDFTLTISSLEPEDFAVYYCQQSSNWPRTFGQGTKVEIK
# B8: mouse anti-PD-1 monoclonal antibody 2G2 (antibody, mouse IgG1, kappa, V domains shown)
# VH: EVQLVESGGDLVKPGGSLKLSCTASGFTFSYYGMSWVRQTPDKRLEWVATISSGSSFTYSPDSVKGRFTISRDNAKNTLYLQMNSLKSEDTAIYYCTRREGIYDASWDYSMDYWGQGTSVTVSS
# VL: DVLMTQTPLSLPVSLGDQASISCRSSQSIIRSNGNTYLEWYLQKPGQSPKLLIYKVSNRFSGVPDRFSGSGSGTDFTLKISRVEADDLGLYYCFQGSHVPWTFGGGTKLEIKR
# notes: Purified from hybridoma; Constant regions tied only generically to 'mouse antibodies'; also called Clone 2G2
# What was measured:
# [1] = target: T1, recombinant human PD-1-his (Sino biological, #10377-H08H) (human, UniProt Q15116 25-167); experiment: SPR (Biacore) as in Example 2
# T1 construct: Bought protein; also called Human PD-1-his protein; not shown: his tag
# [2] = target: T1, recombinant human PD-1-his (Sino …); experiment: SPR (Biacore)
# [3] = target: T2, cynomolgus monkey PD-1-his protein (Acro biosystems, #PD-1-C5223) (cynomolgus monkey, UniProt B0LAJ3 25-170); experiment: SPR (Biacore)
# T2 construct: Bought protein; also called Cynomolgus PD-1; Cynomolgus PD1
# [4] = target: T3, human PD-1 on PD-1 Effector Cell Line (Genscript, GS-J2/PD-1) (human, UniProt Q15116 25-288); experiment: cell-based or functional assay
# [5] = target: T4, biotin-labeled human PD-1 Fc protein (human, biotin-labeled (sites not given)); experiment: binding capture ELISA, biotin PD-1-Fc
# T4 construct: also called PD-1-Fc-biotin
# [6] = target: T4, biotin-labeled human PD-1 Fc protein; experiment: PD1/PDL1 ligand blocking ELISA (coated PD-L1-Fc)
# [7] = target: T4, biotin-labeled human PD-1 Fc protein; experiment: benchmark blocking ELISA (coated Nivolumab as competitor)
# Experimental: (§1) The next day, plates were washed with wash buffer, and blocked with 5% non-fatty milk in PBST for 2 hours at 37° C. […] Plates were finally washed using wash buffer. TMB was added and the reaction was stopped using 1M H_2SO_4, and the absorbance was read at 450 nm. Data were analyzed using Graphpad Prism software and $IC50$ values were reported.
# [8] = target: T4, biotin-labeled human PD-1 Fc protein; experiment: binding capture ELISA (goat anti-human IgG Fab capture), biotin PD-1-Fc
# [9] = target: T4, biotin-labeled human PD-1 Fc protein; experiment: capture binding ELISA, biotin PD-1-Fc
# [10] = target: T4, biotin-labeled human PD-1 Fc protein; experiment: PD1/PDL1 ligand blocking ELISA (coated PD-L1-Fc); remark: listed apart in the source
# Experimental: (§2) The next day, plates were washed with wash buffer (PBS+0.05% Tween-20, PBST), and blocked with 5% non-fatty milk in PBST for 2 hours at 37° C. Plates were then washed again using wash buffer.
# (§3) After incubation at 37° C. for 40 minutes, plates were washed for 4 times using wash buffer. […] Plates were washed again using wash buffer. Finally, TMB was added and the reaction was stopped using 1M H_2SO_4, and the absorbance was read at 450 nm. Data were analyzed using Graphpad Prism software and $IC50$ values were reported.
# [11] = target: T4, biotin-labeled human PD-1 Fc protein; experiment: benchmark blocking ELISA (coated Nivolumab, self-competition)
# [12] = target: T4, biotin-labeled human PD-1 Fc protein; experiment: as above; remark: listed apart in the source
# [13] = target: T4, biotin-labeled human PD-1 Fc protein; experiment: capture ELISA: antibody captured by anti-IgG Fc, biotin PD-1-Fc 60 nM
# [14] = target: T4, biotin-labeled human PD-1 Fc protein; experiment: competition ELISA: blocks biotin PD-1-Fc binding to coated Nivolumab (self-competition)
# [15] = target: T3, human PD-1 on PD-1 Effector Cell Line …; experiment: cell-based or functional assay; remark: listed apart in the source
# [16] = target: T1, recombinant human PD-1-his (Sino …); experiment: SPR (Biacore T200), antibody captured, antigen flowed
# Excerpt: (§4) Briefly, goat […] (GE healthcare, Cat #BR100839, Human Antibody Capture Kit) was covalently linked to a CM5 chip (carboxy methyl dextran coated chip) via primary amines, using a standard amine coupling kit (GE healthcare, Pittsburgh, PA, USA) provided by Biacore. Unreacted moieties on the biosensor surface were blocked with ethanolamine. […] Then, recombinant human PD-1-his (Sino biological, #10377-H08H) or cynomolgus monkey PD-1-his protein (Acro biosystems, #PD-1-C5223) in HBS EP buffer (provided by Biacore) was flowed onto the chip at a flow rate of 30 μL/min. The antigen-antibody association kinetics was followed for 2 minutes and the dissociation kinetics was followed for 10 minutes. The association and dissociation curves were fit to a 1:1 *Langmuir* binding model using BIA evaluation software.
# [17] = target: T2, cynomolgus monkey PD-1-his protein …; experiment: as above
# Excerpt: as §4
# [18] = target: T4, biotin-labeled human PD-1 Fc protein; experiment: competition ELISA: blocks biotin PD-1-Fc binding to coated PD-L1-Fc
# Experimental: as §2, §3
# [19] = target: T4, biotin-labeled human PD-1 Fc protein; experiment: competition ELISA: blocks biotin PD-1-Fc binding to coated Nivolumab (competitor); partial blocking
# Experimental: as §1
binder,measurement,setting,value
B1,Kd,[1],4.52 nM
B2,Kd,[1],2.95 nM
B3,Kd,[1],3.37 nM
B4,Kd,[1],6.36 nM
B5,Kd,[2],0.968 nM
same,Kd,[3],0.892 nM
same,"Cell-based reporter assay (EC50, nM)",[4],11.3 nM
same,Kd,[1],0.968 nM
same,EC50,[5],0.34 nM
same,IC50,[6],0.88 nM
same,IC50,[7],0.35 nM
same,EC50,[8],0.44 nM
B6,Kd,[1],3.05 nM
B7,EC50,[9],0.37 nM
same,EC50,[5],0.37 nM
same,IC50,[10],0.41 nM
same,IC50,[6],0.41 nM
same,IC50,[11],0.38 nM
same,IC50,[12],0.38 nM
same,EC50,[13],0.21 nM
same,IC50,[14],3.79 nM
B8,"Reporter Activation (EC50, nM) human PD-1 cell (NFAT-luc)/human PD-L1 cell",[15],17.9 nM
same,Kd,[16],2.68 nM
same,koff,[16],0.000436 s⁻¹
same,kon,[16],163000 M⁻¹ s⁻¹
same,Kd,[17],13 nM
same,koff,[17],0.00183 s⁻¹
same,kon,[17],140000 M⁻¹ s⁻¹
same,IC50,[18],0.32 nM
same,EC50,[13],0.18 nM
same,IC50,[19],14.4 nM
